Target: human TNFalpha (human) (UniProt P01375)
Test: SPR (BiaCore), antibody purified by protein A and SEC

Chain of UniProt P01375 (P01375 77-233 limits assumed): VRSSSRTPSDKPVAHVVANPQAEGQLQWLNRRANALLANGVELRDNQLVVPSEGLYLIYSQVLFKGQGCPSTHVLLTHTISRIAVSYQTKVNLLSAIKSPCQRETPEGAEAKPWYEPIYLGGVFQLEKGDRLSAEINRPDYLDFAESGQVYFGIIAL

Kd: 72.9 pM
koff: 0.00011 s⁻¹
kon: 1.51e+06 M⁻¹ s⁻¹
Substance: D2E7 antibody product secreted from sORF construct pTT3-pfu lon HL (-)

Reference: patent US20110150861A1
